Data set [1] addresses T1, substrate peptide 2: 2Abz-SLGRKIQ-Lys(Dnp)-NH2.
T1 chain: SLGRKIQ

In data set [2] the target is T2, substrate peptide 3: 2Abz-GYLGRSYKVG-Lys(Dnp)D-OH (not fully specified).
T2 chain: GYLGRSYKVG

In data set [3] the target is T3, substrate peptide 1: 2Abz-GLQRALEI-Lys(Dnp)-NH2.
T3 chain: GLQRALEI

B1: double-stranded activated C1s protein (protein)
chain 1: EPTMYGEILSPNYPQAYPSEVEKSWDIEVPEGYGIHLYFTHLDIELSENCAYDSVQIISGDTEEGRLCGQRSSNNPHSPIVEEFQVPYNKLQVIFKSDFSNEERFTGFAAYYVATDINECTDFVDVPCSHFCNNFIGGYFCSCPPEYFLHDDMKNCGVNCSGDVFTALIGEIASPNYPKPYPENSRCEYQIRLEKGFQVVVTLRREDFDVEAADSAGNCLDSLVFVAGDRQFGPYCGHGFPGPLNIETKSNALDIIFQTDLTGQKKGWKLRYHGDPMPCPKEDTPNSVWEPAKAKYVFRDVVQITCLDGFEVVEGRVGATSFYSTCQSNGKWSNSKLKCQPVDCGIPESIENGKVEDPESTLFGSVIRYTCEEPYYYMENGGGGEYHCAGNGSWVNEVLGPELPKCVPVCGVPREPFEEKQR
chain 2: IIGGSDADIKNFPWQVFFDNPWAGGALINEYWVLTAAHVVEGNREPTMYVGSTSVQTSRLAKSKMLTPEHVFIHPGWKLLEVPEGRTNFDNDIALVRLKDPVKMGPTVSPICLPGTSSDYNLMDGDLGLISGWGRTEKRDRAVRLKAARLPVAPLRKCKEVKVEKPTADAEAYVFTPNMICAGGEKGMDSCKGDSGGAFAVQDPNDKTKFYAAGLVSWGPQCGTYGLYTRVKNYVDWIMKTMQENSTPRED
For the protein B1, the results for the Kcat/Km in data set [1], in data set [2] and in data set [3] were 1.45, 15.4 and 1.67, respectively.

(Values after patent US20250012721.)
